± gives the standard error. This sample holds only a part of the variants without activity.
B1: glmS ribozyme (parent)
chain: AUAAAAGCGCCAGAACUACAGAAAUGUAGUUGACGAGGAGGAGGUUUAUCGAAUUUUCGGCGGAUGCCUCCAAA

Key:
Settings in all cases: with glucosamine-6-phosphate
glucosamine-6-phosphate [1] = variants of: B1; experiment: self-cleavage kobs at 640 uM GlcN6P; higher = faster cleavage; RNA array
Method in brief: (§1)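 Barcoded ribozyme variants were transcribed in situ on sequenced MiSeq chips by E. coli RNA polymerase. At 37 °C, a hybridised Cy3 probe tracked them while glucosamine-6-phosphate (40 μM to 10 mM) in HEPES/KCl/Mg(OAc)2 buffer flowed in and tiles were imaged over ~14 h. Per-tile medians of signals normalised to baseline and to non-cleaving reference variants were fit to one- or two-exponential decays, giving kobs. kcat and KM came from weighted Michaelis–Menten fits across concentrations.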

glucosamine-6-phosphate [2] = variants of: B1; experiment: self-cleavage kobs at 2500 uM GlcN6P; higher = faster cleavage; RNA array
Method in brief: as §1

glucosamine-6-phosphate [3] = variants of: B1; experiment: self-cleavage kobs at 10000 uM GlcN6P; higher = faster cleavage; RNA array
Method in brief: as §1

Row | Variant | self-cleavage kobs at 640 uM GlcN6P (glucosamine-6-phosphate [1]) | self-cleavage kobs at 2500 uM GlcN6P (glucosamine-6-phosphate [2]) | self-cleavage kobs at 10000 uM GlcN6P (glucosamine-6-phosphate [3])
1 | C10G G40U C71U | < 1e-05 s⁻¹ | < 1e-05 s⁻¹ | –
2 | G13C G37U A39U | < 1e-05 s⁻¹ | < 1e-05 s⁻¹ | –
3 | C10U A12U G29C G41U C70U | < 1e-05 s⁻¹ | < 1e-05 s⁻¹ | –
4 | C11A G32C G41U A52U | < 1e-05 s⁻¹ | – | –
5 | C10U G13A G29A G41A | < 1e-05 s⁻¹ | – | –
6 | C10G C68G C71U | 3.95e-05 ± 1.7e-05 s⁻¹ | – | –
7 | G13C A14U A42U A64G | < 1e-05 s⁻¹ | – | –
8 | A12G A36G G40A U54G | < 1e-05 s⁻¹ | – | –
9 | A12U G40C C61A | < 1e-05 s⁻¹ | – | –
10 | A12G C16U U49A | < 1e-05 s⁻¹ | – | –
11 | C10A U47A C70G | 0.000288 ± 0.00012 s⁻¹ | – | –
12 | C10A G38A G40U C50G G51U | < 1e-05 s⁻¹ | < 1e-05 s⁻¹ | –
13 | C10A C67U C68U | 0.000489 ± 0.00014 s⁻¹ | – | –
14 | C11U A15U U57G C58U C67U | 0.00016 ± 4e-05 s⁻¹ | 0.000131 ± 4.9e-05 s⁻¹ | –
15 | G13U A48C G59U G66U | < 1e-05 s⁻¹ | – | –
16 | C10U A14U C16U C68G | 0.00169 ± 0.00051 s⁻¹ | 0.000319 ± 0.00011 s⁻¹ | –
17 | A12G U30A A52C U54C | < 1e-05 s⁻¹ | < 1e-05 s⁻¹ | –
18 | A12G A15U U45C G59A | < 1e-05 s⁻¹ | < 1e-05 s⁻¹ | –
19 | C10G G35A A42C | < 1e-05 s⁻¹ | < 1e-05 s⁻¹ | –
20 | C11U A14C A39G | 0.000103 ± 3.3e-05 s⁻¹ | 0.000472 ± 0.00019 s⁻¹ | –
21 | G13C G37C U45G | < 1e-05 s⁻¹ | < 1e-05 s⁻¹ | –
22 | C10U C16U G32A C50G | 0.000327 ± 0.00015 s⁻¹ | 9.98e-05 ± 3.8e-05 s⁻¹ | –
23 | G9U C10A A42U G51A U54G G60C | < 1e-05 s⁻¹ | – | –
24 | G13A G40A G44U C67U C68G | < 1e-05 s⁻¹ | < 1e-05 s⁻¹ | < 1e-05 s⁻¹

Row | Variant | self-cleavage kobs at 640 uM GlcN6P (glucosamine-6-phosphate [1]) | self-cleavage kobs at 2500 uM GlcN6P (glucosamine-6-phosphate [2]) | self-cleavage kobs at 10000 uM GlcN6P (glucosamine-6-phosphate [3])
25 | G13C C16G G41A | < 1e-05 s⁻¹ | – | –
26 | G9C U31G U57A | < 1e-05 s⁻¹ | – | –
27 | G9C G32U C50U | < 1e-05 s⁻¹ | – | –
28 | C10U G29U U55G | < 1e-05 s⁻¹ | < 1e-05 s⁻¹ | –
29 | C11G U55G G59C | 0.00067 ± 0.00021 s⁻¹ | – | –
30 | A12C U46C C67G | 6.73e-05 ± 1.7e-05 s⁻¹ | 0.000179 ± 5.3e-05 s⁻¹ | –
31 | A12U U45A U65G | 0.000665 ± 0.00016 s⁻¹ | – | –
32 | G13C U46A G66A C70A | < 1e-05 s⁻¹ | – | –
33 | G13A A39U U55C | 4.33e-05 ± 1.4e-05 s⁻¹ | 0.000128 ± 2.9e-05 s⁻¹ | –
34 | C11U G38C G51U U65A | < 1e-05 s⁻¹ | – | –
35 | C11U A14G A52G | 8.93e-05 ± 1.6e-05 s⁻¹ | 0.00029 ± 8e-05 s⁻¹ | –
36 | G9A C68A U69C | < 1e-05 s⁻¹ | – | –
37 | C10G U54A C58G G62C C67G | 6.44e-05 ± 2.7e-05 s⁻¹ | 6.02e-05 ± 2.4e-05 s⁻¹ | –
38 | C11A A14G G41U G51C | < 1e-05 s⁻¹ | < 1e-05 s⁻¹ | –
39 | C10G U30C C68G | 9.65e-05 ± 3.5e-05 s⁻¹ | – | –
40 | C11A U30G G32U G44A G66A | < 1e-05 s⁻¹ | < 1e-05 s⁻¹ | –
41 | C11G A15C G32U A33C C50U C71A | 0.000149 ± 4e-05 s⁻¹ | – | –
42 | A12U U31C C67U | 0.000286 ± 9.1e-05 s⁻¹ | – | –
43 | C10G U47C U49C U55G | < 1e-05 s⁻¹ | – | –
44 | G9U G29C U54G U69A | < 1e-05 s⁻¹ | < 1e-05 s⁻¹ | –
45 | C11A U55G C61G G62C | < 1e-05 s⁻¹ | – | –
46 | G13A U45C G66A | 0.000124 ± 3e-05 s⁻¹ | 9.89e-05 ± 2.4e-05 s⁻¹ | 0.000343 ± 0.00011 s⁻¹
47 | G13U A14U G44C A52G C58G | < 1e-05 s⁻¹ | – | –
48 | C10A A12U C67G | 8.71e-05 ± 3.5e-05 s⁻¹ | – | –

Row | Variant | self-cleavage kobs at 640 uM GlcN6P (glucosamine-6-phosphate [1]) | self-cleavage kobs at 2500 uM GlcN6P (glucosamine-6-phosphate [2]) | self-cleavage kobs at 10000 uM GlcN6P (glucosamine-6-phosphate [3])
49 | C11U A12C C70G | 0.000165 ± 6.8e-05 s⁻¹ | – | –
50 | C11G G13U C50G G60U C61G | 5.02e-05 ± 2.4e-05 s⁻¹ | – | –
51 | C11A G13U U31A G32A U47G | < 1e-05 s⁻¹ | – | –
52 | C11U G13A G44U | < 1e-05 s⁻¹ | < 1e-05 s⁻¹ | –
53 | A12G A42G C61U G63U | < 1e-05 s⁻¹ | – | –
54 | G13C U31A G38U A39U G40C | < 1e-05 s⁻¹ | – | –
55 | A12C U49G C67U | 5e-05 ± 1.4e-05 s⁻¹ | 7.89e-05 ± 1.5e-05 s⁻¹ | –
56 | A12G G29C A39G A52C C67A | < 1e-05 s⁻¹ | – | –
57 | C11A G37A C50U G59A C67U U69G | 6.37e-05 ± 2.7e-05 s⁻¹ | – | –
58 | G9C A48G C67G C68A | 9.72e-05 ± 4.1e-05 s⁻¹ | – | 0.000631 ± 0.00016 s⁻¹
59 | C11G A42U G59U | < 1e-05 s⁻¹ | < 1e-05 s⁻¹ | –
60 | C11A G44A C68A | < 1e-05 s⁻¹ | < 1e-05 s⁻¹ | –
61 | A12G G59C A64U | < 1e-05 s⁻¹ | – | –
62 | G13C G29U G41U C68A C70A | < 1e-05 s⁻¹ | – | –
63 | G13A A15C G60U | < 1e-05 s⁻¹ | – | –
64 | C10U C16U A39U G60U C67G U69G | < 1e-05 s⁻¹ | < 1e-05 s⁻¹ | –
65 | G13C A39C A42U | < 1e-05 s⁻¹ | – | –
66 | C11U A12G C34A | < 1e-05 s⁻¹ | – | –
67 | G13A C16G G59C C68A | 0.000133 ± 3.8e-05 s⁻¹ | – | –
68 | A12G G37U A48G | < 1e-05 s⁻¹ | < 1e-05 s⁻¹ | –
69 | G9U A15U A42G G63C U69G | < 1e-05 s⁻¹ | < 1e-05 s⁻¹ | –
70 | G9U A12C | < 1e-05 s⁻¹ | – | < 1e-05 s⁻¹

— the supplement of paper PMC7125110
